Experimental data published in the DeepSol protein solubility set.

Test: soluble on expression in E. coli; label from the status in PepcDB or PDB records

Row | Sequence | soluble on expression in E. coli
1 | DLDLEMLAPYIPMDDDFQLR | soluble
2 | MAHHHHHHMPNNDSHDAQLLRHYAQFFPNVLFTSEEEMEKYCQDARPDAVKKVLDLPEGEEVPEDAMNDPRAHLYILKHIVGRNATTAAFVALRGSDKQKVVAKFIMLNDEKQAAYARSEVHCLAACDHFGIVKHYDDLKSEDKLLLIMEYGSGGDLNKQIKQRLKERLPFKEHEAGLLFYQIVLALDEVHSRKMMHRDLKSANIFLMPTGIIKLGDFGFSKQYTDSVSLDVGSSFCGTPYYLAPELWERKRYSKKADMWSLGVILYELLTLHRPFKGPSQREIMQQVLYGNYDPFPCGVSDGMKAVMEPLLSKDPALRPTTTQLLHTELMKYVANIFEEIVRNSEVIEKHDKERILRQLAESRAKAPPPNSIQAGAVSNDVVREGYLLKYSSDMKWKKRYFSIKNGQLRISLTDNPEKDGVSPKSASLETVNDVFPVPEAYCRSNPHQLVIWFTNGQKIIAMAKSAEERDQWISDFQRACGM | soluble
3 | MSRSKKSRKPGTNSNDQLVVVRTRSESELESRLRKKLKKRKGLKSGSRHSEGSESQVRQAAQKRDPRLGSKKPIPLIVAEPKKLNKQERKLAAEQELAMLEKDAQLNVLLDRLDNGEKLGIGLQKYVDEKLDRIEVLMEQLGLLDDEPEPAPAPQSKPTKKRKTEDDLLSEFEQLDVDKYQD | not soluble
4 | MGSDKIHHHHHHMTWNTPKPGEWKSEELSKGRIIDYKAFNFVDGEGVRNSLYVAGCMFHCEGCYNVATWSFDAGIPYTQELEEQIMEDLAQPYVQGLTLLGGEPFLNTGILLPLLKRIRKELPEKDIWSWTGYTWEELMLETPDKLEMLNLLDILVDGRFDKSKKNLMLQFRGSSNQRIIDVPKSLASGQVVIWDKLNDGKQTYEQIDRDGLI | not soluble
5 | MGSDKIHHHHHHMANPLTGYNFAYLDEQTKRMIRRAILKAVAIPGYQVPFGGREMPMPYGWGTGGIQLTASVIGENDVLKVIDQGADDTTNAVSIRQFFKRVTGVATTERTEDATLIQTRHRIPETPLVEDQILIYQVPIPEPLRFIEPRETETRTMHALEEYGVMQVKLYEDIARFGHIATTYAYPVKVNGRYVMDPSPIPKFDNPKMHMMPALQLFGAGREKRIYAVPPYTPVESLDFDDHPFTVQEWDEPCAICGSRHSYLDEVVLDDSGQRMFVCSDTDYCRQQSEGQKK | not soluble
6 | MNPIASNSAVTLHFTIKLKDGSVADSTHNQGKPAKLVMGDGSLSPNFEQCLLGMLPGEKKSVALAAQDAFGAPNPDHVHYMDRSKFLGGDLQLEVGTIMAFSGPDGMEIPGIITEIAGDSVTVDFNHPLAGQDITFDVEILSVE | not soluble
7 | GSESGLRYAYTLVVDGTANTARCFGTGHVDGEAFVGYSNNKTHGIGRWVNASHVEEENKEFVRQCKELQAELDKMQNNSAVIGVKTVQLDVGCTSKIEKHYAYDGNETEDDTATSASERARDCQKKLTEYRKLVLASAVSPQLEVERRSSGREGGMRLRCFARDYYPADLEIRWWKDDGGGGALPQTSKQHHDPLPSGQGLYQKHIDVYVDGGLEHVYSCRVKGIATGLELQIVRWKG | soluble
8 | GAMASLVVPNLMGNKDKADRQKVMSDLVALESTLDMYRLDNNRYPTTEQGLRALVSKPTVQPEPRNYRQDGYIRRLPQDPWGGDYQLLNPGQYSDIDIFSPGPDGVPNTEDDIGNWTLGNAQP | soluble
9 | MSTDEWRTERDPLVSQDRFLWEKVCCTIIPLHKKRYSSFAKEVVNVSKDAVKINNKKQYITQILPLSQANQQKLTEVKREKKAIAQTHKIHFFDRVVHRKIAKGHYSIEARLDLHGCMQEEAYFFLKKFLQSSQQNGLRYVLVITGKGRSPGSNGVLYQSVPHWLSTPAFRYYVHAFEQAARQHGGDGALYVRLRRFLPGKGYDVV | not soluble
10 | ATEEEYQLFLEPYLQETRLGAYDFPLFSTIFKAFSKKGSFKSLIDPYCFGQALSNGRAITFVVTHDIPNNDVFLDLIMDEEDEWIAYAYILGRDGGVPLVYTDLDTSGIKNKNGKPRWKDAWNDPRMAKMIAFHNVTHGESMTVLEGNDDMLVLKRGEKGIVVLNKSTRAQSLSLKTECDWFDLMSDQSVKAGIELKVPAKSFMLLVQK | not soluble
11 | MEKDDATASFSPSFSTYSGDRLVEIAERVCYKEKSDAEFEFSTAATSSSGDGGLVFPVFNKNLISGDVSPEKVIPLKDLFLRERNDQQPPQQTYSSSSDEEEEDDEFDSIPSEIYCPWTPARSTADMSPSGGCRKSKSTGSSSTSTWSTKRWRLRDFLKRSKSDGKQSLKFLNPTNRDDDDESSKSKKKVSVSVTVSAHEKFYLRNKAIKEEDKRKSYLPYKQDLVGLFSNIHRYGKTFPPF | not soluble
12 | MSLNKYEPLFKSLTLPNGVEVRNRFVLAPLTHTSSNDDGTISDIELPYIEKRSKDVGIAINAASNVNDVGKAFPGQPSVAHDSDIEGLKELAQVMKKNGAKAIVQIHHGGAQALPELTPDGDVVAPSAISLKSFGQQKEHDAREMTAEEIEQTIRDFGEATRRAIEAGFDGVEIHGANHYLIHQFVSPYYNRRNDVWADNYKFPVAVIDEVVKAKKAHAYDDFIIGYRLSPEEAESPGISMEITEELIHQIANKPLDYIHVSLMDVNSVTREGKYKGENRLELIHQWINGRMPLIGIGSVFTAEDALNAVENIGVEFVALGCEILLDYDFVAKIKEGREDEIINAFDPNREDQHYLTPNLWEQFNQGFYPLPRKDKEGHHHHHH | soluble
13 | MEEEGSPDIIIVGAGISGLSTAVGLHRLGIRSMVLESSETLRATGFAFTTWFNAWKAMEALGVSQHIRSLHDRLEGWVVGTISAGTPPTEMLFPESEEYESRCVQRKLLLEALAGELPEETIRFSSKVVHIELSGCYKKVHLSDGTILKTKVLVGCDGVYSVVGKWLGFKNPATTARLAIRGLTHFPEGHGFGKRFFQFYGDGVRSGFIPCDHNTVYWFLTHTSTDIDEETNSEILKEFVLNKIKDLPENIKNVVETTDLDSMVMSQLKYRPPWELLWSNITKDNVCVAGDALHPMTPDIGQGGCSAMEDGVILARCLGEAIKAKSLKGETEENEEEGYKRIEEGLKKYAGERKWRSIDLITTAYTVGFIQQSRGKWMNMFRDRFLSSYLSRMLLKKSHFDCGSLVP | soluble
14 | MAHHHHHHMLKCARYLFGPPNTKRKCAPLFSARNFSILERYIRAKPLSHELKIEEAKNEGIKGEGDRNGEERKASEKSASTYYPPNITRGVIPKSAYMNTWKIPEQPANPKFLKVALIGAPNAGKSSLLNSILNKTISAVSPKINTTRQDIKGIYTKDNVQLIFIDSPGIVPSHKKKKFCKELVSYAWKGYEEADLVLFIADTVKRPTHDVLNIIRMLAPKKVEAYSSGSEDEGETQHYMFNHPSEDHDQEEHFEWNGKPQSDLNSSSTNEELYEKSQKNVQKFVEYFSTAMEKEAKYSDKSVKENLLKNRKKIIESYSNDVDGKDSPNGEGEQQKLVPPVILVLNKVDLCTHNKWANARAKEFMSNGNFDNIFFISAKYNKGVEELLDYIAKFKAKNQFWVYPKDSNTTLTKVQVVEQLINTYLYCWFNKDVPYRVKHHMLSWCVNLNNSLIIEYQIVVKSPKVAKMICGVHNKLIINMRRNVSYKLTQLWGQNVYVHIHVKSVSA | not soluble
15 | MSLHQFQQDNQYFIFNFDRTFEQATEFFQAEFWQKQERVIGSAKGRGITYFLQTEDWFGVNCALRHYYRGGLWGKLNKDRYRFSALETTRSFAEFHLLQRLYEAGLPVPKPIAARIQKGKLGICYQADILTEKIENAQDLTALLQTQTLPKETWMQIGRLIRKLHDLQICHTDLNAHNILLQQTEQGQKCWLLDFDKCGEKSADFWKVQNLNRLKRSFEKEVGRMNIQFTEQNWADLTSAYHQEGHHHHHH | soluble
16 | MGHHHHHHSHMAVRRPGCFLCREEAADLSSLKSMLDQLGVPLYAVVKEHIRTEVKDFQPYFKGEIFLDEKKKFYGPQRRKMMFMGFIRLGVWYNFFRAWNGGFSGNLEGEGFILGGVFVVGSGKQGILLEHREKEFGDKVNLLSVLEAAKMIKPQTLASEKK | not soluble
17 | MIPGEYIIKNEFITLNDGRRTLNIKVSNTGDRPVQVGSHYHFFEVNRYLEFDRKSAFGMRLDIPSGTAVRFEPGEEKTVQLVEIGGSREIYGLNDLTCGPLDREDLSNVFKKAKELGFKGVE | not soluble
18 | MAMNGTITTWFKDKGFGFIKDENGDNRYFHVIKVANPDLIKKDAAVTFEPTTNNKGLSAYAVKVVPESKYIYIAGERLKLTSIKSYLVYSEEVPADTRIDKENTVLSVGVLMNSIRPKSVAEPDEIRSLKKLAITTFQGTTLIFSEDEIDVDATVKLLKVLEHHHHHH | soluble
19 | MKTRITELLKIDYPIFQGGMAWVADGDLAGAVSKAGGLGIIGGGNAPKEVVKANIDKIKSLTDKPFGVNIMLLSPFVEDIVDLVIEEGVKVVTTGAGNPSKYMERFHEAGIIVIPVVPSVALAKRMEKIGADAVIAEGMEAGGHIGKLTTMTLVRQVATAISIPVIAAGGIADGEGAAAGFMLGAEAVQVGTRFVVAKESNAHPNYKEKILKARDIDTTISAQHFGHAVRAIKNQLTRDFELAEKDAFKQEDPDLEIFEQMGAGALAKAVVHGDVDGGSVMAGQIAGLVSKEETAEEILKDLYYGAAKKIQEEASRWTGVVRNDLEHHHHHH | soluble
20 | MGSDKIHHHHHHMSVVNKIIGVCRFSYLGLGGFRINEAGAEEAAKALYAADRMTLRFAYFETICLPSLAAQTDSDFTFVALIADTMPLPFRQRLKRLTETYPFLRIAVLESTGPYNSTRRAFSRGLDGQETDFITGFRLDDDDAVSVDYIARTREAADTLITLGWATKDDPAAVCFHRGIYWDMKRPDAPFWDYSEIQPLGLASAMVHHRDSRQNIYRWNHRKLASKVRCWTDPSDVMFLRTLHDHNDSGRVMPRDAEQIPDEQARRLLKDRFGLNPKRLLSTMDRVHGGTDAARQWAAETREDPFGKDGDA | not soluble
21 | MEGEAELWNFLERHLRSIYEGDWATYEATTHEELSLYEWFVTPHRLDGLPFHRFMVEKNWATRGRAYRLDLLEKRLQRYGDVAIFSYTLLLTVEEEAGLRHRAVNESRVAVRFPEGWKVVHVHKSPAG | soluble
22 | MITMKDIIKEGHPTLRKVAEPVPLPPSEEDKRILQSLLDYVKMSQDPELAAKYGLRPGIGLAAPQINVSKRMIAVHVTDENGTLYSYALFNPKIVSHSVQQCYLTTGEGCLSVDRDVPGYVLRYARITVTGTTLDGEEVTLRLKGLPAIVFQHEIDHLNGIMFYDRINPADPFQVPDGAIPIGR | soluble
23 | VDKRESYTKEDLLASGRGELFGAKGPQLPAPNMLMMDRVVKMTETGGNFDKGYVEAELDINPDLWFFGCHFIGDPVMPGCLGLDAMWQLVGFYLGWLGGEGKGRALGVGEVKFTGQVLPTAKKVTYRIHFKRIVNRRLIMGLADGEVLVDGRLIYTASDLKVGLFQDTSAF | soluble
24 | MGSDKIHHHHHHMTARHSDCVHCLMRGQSIFAGLSREEVCELGMDVQDIHVPAGTTIYHEGDPAQYAYTLRQGGIKLVKSLPNGHAQIVRLLHHGDLLGFEGLRTDRHRHSAITLTGTDLCRLELRALDALSQRLPAVREAIFARWQQALQEAEDRIVELGAKKADARLATFLCQWVGAYPQQRAAPFPLTRQDLGEFLGLSTEHVSRIMADLKRHRLLHEHKGQIEIPDPQNLFLYASSDGTRA | not soluble
25 | MWLGYMNKSIPTTRKTRTFKAMSIEFSAPAKMKIEVWSDIMCPFCYIGKKRLDDALSTFDQAGRIEVEYKSFELMPGLETHPLRSDVEYLADAKGMSLEQARQMNGQVQAMAQATGLEMNPDETIAANTINAHRLTHFAKAHGKQQEVAQELFKAHFVDGKNVDDLDVLVSIAAEVGLDASAAREALESDVYTNEVQQDVHEARQLGVQGVPFFVFDRKYAINGAQQEEVFTGTVEKAFEEWAAENPVSPFEVIDGQSCSVDGTCN | not soluble
